Source: US12427210B2, “Compounds comprising a fibroblast activation protein ligand and use thereof” (priority 2019, dated 2025)

How the values were obtained:
[1] = molecular target: T1, DPP3 (Homo sapiens (Human)) (UniProt Q9NY33)
T1 sequence: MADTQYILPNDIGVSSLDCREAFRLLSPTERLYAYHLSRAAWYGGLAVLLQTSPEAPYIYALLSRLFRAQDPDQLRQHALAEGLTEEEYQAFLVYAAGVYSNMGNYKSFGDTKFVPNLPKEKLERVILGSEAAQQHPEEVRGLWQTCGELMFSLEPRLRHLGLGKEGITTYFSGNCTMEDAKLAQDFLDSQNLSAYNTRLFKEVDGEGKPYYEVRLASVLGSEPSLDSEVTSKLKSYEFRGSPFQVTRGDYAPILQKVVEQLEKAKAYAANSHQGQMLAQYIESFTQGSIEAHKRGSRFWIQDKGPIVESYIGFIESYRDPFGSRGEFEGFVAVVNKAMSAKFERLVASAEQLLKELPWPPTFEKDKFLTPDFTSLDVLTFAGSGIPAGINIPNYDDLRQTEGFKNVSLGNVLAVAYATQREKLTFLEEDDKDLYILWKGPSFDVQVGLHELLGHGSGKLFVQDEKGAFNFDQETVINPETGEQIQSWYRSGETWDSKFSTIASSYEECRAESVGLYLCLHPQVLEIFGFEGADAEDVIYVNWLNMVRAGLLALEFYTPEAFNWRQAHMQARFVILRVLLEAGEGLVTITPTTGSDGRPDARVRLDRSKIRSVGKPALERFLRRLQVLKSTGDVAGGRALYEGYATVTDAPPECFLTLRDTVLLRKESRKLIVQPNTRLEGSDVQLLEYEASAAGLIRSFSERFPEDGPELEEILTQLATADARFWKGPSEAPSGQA

[2] = molecular target: recombinant human PREP (R&D systems, #4308-SE) (human) (UniProt P48147)
Sequence of recombinant human PREP (R&D systems, #4308-SE) (human) (P48147 whole entry): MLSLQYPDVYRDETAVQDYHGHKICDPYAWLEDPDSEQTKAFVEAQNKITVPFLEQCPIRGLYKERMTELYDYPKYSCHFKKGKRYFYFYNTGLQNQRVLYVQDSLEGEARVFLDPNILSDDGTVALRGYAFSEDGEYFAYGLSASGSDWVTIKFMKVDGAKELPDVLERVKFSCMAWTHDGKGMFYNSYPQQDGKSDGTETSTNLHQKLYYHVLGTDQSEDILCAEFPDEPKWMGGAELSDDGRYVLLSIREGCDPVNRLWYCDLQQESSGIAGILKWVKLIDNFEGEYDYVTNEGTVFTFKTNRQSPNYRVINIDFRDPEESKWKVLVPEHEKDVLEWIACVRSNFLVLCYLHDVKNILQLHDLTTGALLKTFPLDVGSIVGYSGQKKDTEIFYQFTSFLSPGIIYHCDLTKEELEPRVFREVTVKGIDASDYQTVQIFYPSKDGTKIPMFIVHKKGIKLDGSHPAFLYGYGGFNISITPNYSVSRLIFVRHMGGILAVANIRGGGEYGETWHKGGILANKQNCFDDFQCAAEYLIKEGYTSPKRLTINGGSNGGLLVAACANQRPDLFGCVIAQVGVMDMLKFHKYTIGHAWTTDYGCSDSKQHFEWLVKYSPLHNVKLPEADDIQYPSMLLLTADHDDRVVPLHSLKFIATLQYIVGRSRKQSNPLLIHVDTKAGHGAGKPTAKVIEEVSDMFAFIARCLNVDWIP

[3] = molecular target: Recombinant human DPP4 (R&D systems #9168-SE) (human) (UniProt P27487)

Substance	Percentage inhibition (%) (% inhibition at 10 µM) [1]	pIC50 (PREP) [2] [pIC50]	pIC50 (DPP4) [3] [pIC50]
Hex-[Cys(tMeBn(DOTA-AET))-Pro-Pro-Thr-Gln-Phe-Cys]-OH (3BP-3554) (peptide)	-1	–	–
Hex-[Cys(tMeBn(DOTA-PP))-Pro-Pro-Thr-Gln-Phe-Cys]-Asp-NH2 (3BP-3407) (peptide)	–	< 6	< 6
